Measured values from publication PMC9833669.

Biological target: recombinant extracellular domain of the human AXL protein (tyrosine protein kinase receptor UFO) (human) (UniProt P30530)
Experiment: BLI

Substance “GST-VP1u^(1-227aa) (glutathione S-transferase fused to the B19V VP1 unique region) (from UniProt Q9PZT0 1-227) (domain or fragment)” has a Kd of 103 nM.
